The text below walks through data of publication doi:10.1101/2022.12.23.521429v4.

The test system of this series is Nc1ncnc2c1ncn2[C@@H]1O[C@H](COP(=O)(O)OP(=O)(O)OP(=O)(O)O)[C@@H](O)[C@H]1O. In words: kinase activity assay. As to conditions: co-substrate and buffer of the KM determination not told. The series is classed as biochemical, Homo sapiens.

Take “DYRK1B kinase domain (78-442) (Homo sapiens)”: the Km is 105 µM.
